Source: publication PMC11335232

Target: T1, CTCF recombinant full-length (OriGene) (UniProt P49711)
T1 sequence: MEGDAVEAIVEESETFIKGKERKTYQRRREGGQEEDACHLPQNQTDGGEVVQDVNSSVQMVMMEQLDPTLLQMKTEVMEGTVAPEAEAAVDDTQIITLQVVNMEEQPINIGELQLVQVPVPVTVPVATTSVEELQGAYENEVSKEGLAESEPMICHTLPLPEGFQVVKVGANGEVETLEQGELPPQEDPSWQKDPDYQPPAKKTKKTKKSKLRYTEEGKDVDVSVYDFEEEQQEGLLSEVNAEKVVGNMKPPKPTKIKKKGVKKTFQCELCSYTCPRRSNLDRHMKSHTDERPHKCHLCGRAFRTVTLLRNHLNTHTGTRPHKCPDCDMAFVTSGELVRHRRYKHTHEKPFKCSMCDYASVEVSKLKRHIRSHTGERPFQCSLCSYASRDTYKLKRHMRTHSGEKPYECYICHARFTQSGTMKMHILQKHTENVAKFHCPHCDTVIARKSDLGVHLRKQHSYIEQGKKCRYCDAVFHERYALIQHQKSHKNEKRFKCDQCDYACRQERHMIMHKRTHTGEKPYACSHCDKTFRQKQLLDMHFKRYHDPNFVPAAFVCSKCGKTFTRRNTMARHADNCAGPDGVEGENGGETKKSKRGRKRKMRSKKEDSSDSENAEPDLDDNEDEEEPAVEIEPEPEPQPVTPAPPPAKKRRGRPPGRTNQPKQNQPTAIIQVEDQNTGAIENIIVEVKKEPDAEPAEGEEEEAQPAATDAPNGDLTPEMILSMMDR
Test: EMSA, competition
Conditions: LightShift Chemiluminescent RNA EMSA Kit (20158) and Pierce Magnetic RNA-Protein Pull-down Kit (20164) protocols; buffer, salt, pH and temperature not stated

For “TTTACAGCGGTGAGGACCACCAAGGGGAGCTAAAATTCGAATGTAGGGAACAGACGATTAACAAGTTAGTTTCAGAATGAAAGACTCGAGTGTAAGAATTCAATGGGATAATTCCTGTAAAGCGTTTAGTACAGTAAAGAGCGAAGGGAAATTCTGAATAAAAGGCAGACACTATTTTAGGATTTGGCCTTCCCCG (double strand) [RAB5A-set3 promoter DNA probe (196 bp)]”, the binding was “binds”.
